Substitutions are numbered along the chain they refer to.
Tests used:
[1] = molecular target: T1, ß-defensin (Sigma Aldrich, D9565) (UniProt P60022 33-68); assay: SPR (Biacore T200), hNGAL immobilized on CM5 chip, analyte in solution
T1 construct: also called mammalian antimicrobial 36 amino acid peptide ß-defensin
T1 peptide (looked up): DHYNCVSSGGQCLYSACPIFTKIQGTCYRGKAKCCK
Procedure: (§1) The reference channels were treated with EDC/NHS following ethanolamine (blank immobilization). Dilutions of Hepcidin-25 (Peptallova), Fe-enterobactin (Genaxxon Bioscience, S4035.0001), ß-defensin (Sigma Aldrich, D9565), VEGF₈₋₁₀₉ (Pieris, truncated VEGF) and HSA (Sigma Life sciences, A1653) in HBS-EP+ buffer (GE Healthcare, BR-1006-69) were applied to the prepared chip surfaces. The following parameters were used for the binding assay: contact time 60 s, dissociation time 600 s, flow rate 30 μL/min. All measurements were performed on a Biacore T200 instrument (GE Healthcare) at 25° C. […] Prior to the protein measurements three startup cycles were performed for conditioning purposes. Data were evaluated with Biacore T200 Evaluation software (V 1.0). Double referencing was used. The 1:1 Binding model was used to fit the raw data. No binding to the reference channel was detected for all of the targets. […] The bacterial siderophor Fe-enterobactin was selected for this analysis as it constitutes one of the natural ligands of the lipocalin that the lipocalin mutein was derived from. […] HSA and VEGF were used as example of non-related proteins. The hNGAL lipocalin, immobilized in an identical fashion on a CM5 chip compared to the lipocalin mutein was used as positive control for the Fe-enterobactin analyte. As described in the literature, the hNGAL lipocalin bound Fe-enterobactin with subnanomolar affinity, whereas none of the other analytes including hepcidin were bound.

[2] = molecular target: T2, HSA (Sigma Life sciences, A1653) (human, UniProt P02768 25-609); assay: as above
T2 construct: Printed only as the abbreviation HSA
Procedure: as §1

Hepcidin-25 [3] = molecular target: T3, Hepcidin-25 (human); assay: as above
T3 construct: also called Hepc25; mature form of human hepcidin
T3 peptide: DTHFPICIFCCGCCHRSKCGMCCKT
Procedure: as §1

[4] = molecular target: T4, VEGF8-109 (Pieris, truncated VEGF) (UniProt P15692 214-315); assay: as above
T4 construct: range 8-109; By custom it is counted on mature VEGF-A, not on the precursor
T4 sequence (looked up): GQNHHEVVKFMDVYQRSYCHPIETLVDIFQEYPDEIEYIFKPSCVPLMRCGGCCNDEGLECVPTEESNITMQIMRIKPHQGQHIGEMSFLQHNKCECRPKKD
Procedure: as §1

[5] = molecular target: T5, Hepcidin-25 containing a C-terminal biotin group (human, C-terminal biotin group); assay: solution competition ECL assay: 25 pM Hepcidin-25-C-bio pre-incubated with the conjugate, remaining free Hepcidin-25-C-bio captured on plate-coated antibody 12B9; STDV 14 pM, mean of n=5
T5 construct: also called Hepcidin-25-C-bio; biotinylated hepcidin
T5 peptide: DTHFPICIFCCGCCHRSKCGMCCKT
Procedure: (§2) The binding affinity of the hNGAL mutein having the sequence of SEQ ID NO: 2 was compared to the binding affinity of the hNGAL mutein having the sequence of SEQ ID NO: 1 linked to PEG12, PEG20, PEG30 or PEG40 in a solution competition electrochemiluminescence (ECL) assay. A defined molar concentration of Hepcidin-25 containing a C-terminal biotin group (25 pM, Hepcidin-25-C-bio) was incubated with different concentrations of the lipocalin muteins for 30 min. at room temperature. The solution was then transferred to an ECL plate coated with the human hepcidin specific monoclonal antibody 12B9 as described herein (and disclosed in WO2008/097461) to measure the remaining concentration of free Hepcidin-25-C-bio in the solution. 12B9-bound Hepcidin-25-C-bio was detected via the Streptavidin sulfotag detection reagent on the Meso-Scale ECL platform and the concentration determined via a Hepcidin-25-C-bio standard curve. […] The assay, for example, was able to distinguish the binding affinity of one lipocalin mutein (SEQ ID NO: 2) from the binding affinity of another lipocalin mutein (SEQ ID NO: 3). Furthermore, it allowed a direct comparison of different high affinities of the lipocalin muteins as well as conjugates having PEG chains of different length.

[6] = molecular target: T5, Hepcidin-25 containing a C-terminal …; assay: solution competition ECL assay: 25 pM Hepcidin-25-C-bio pre-incubated with the conjugate, remaining free Hepcidin-25-C-bio captured on plate-coated antibody 12B9; STDV 11 pM, mean of n=5
Procedure: as §2

[7] = molecular target: T5, Hepcidin-25 containing a C-terminal …; assay: solution competition ECL assay: 25 pM Hepcidin-25-C-bio pre-incubated with the conjugate, remaining free Hepcidin-25-C-bio captured on plate-coated antibody 12B9; STDV 6 pM, mean of n=6
Procedure: as §2

Cynomolgus hepcidin 25 [8] = molecular target: T6, Cynomolgus hepcidin 25 (Cynomolgus monkey, UniProt A7XEI3 60-84, not fully specified); assay: surface plasmon resonance
T6 construct: mature; also called Cynomolgous hepcidin 25
T6 peptide: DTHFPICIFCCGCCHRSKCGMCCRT

[9] = molecular target: T5, Hepcidin-25 containing a C-terminal …; assay: solution competition ECL assay: 25 pM Hepcidin-25-C-bio pre-incubated with the conjugate, remaining free Hepcidin-25-C-bio captured on plate-coated antibody 12B9; STDV 10 pM, mean of n=5
Procedure: as §2

Hepcidin-25 [10] = molecular target: T3, Hepcidin-25; assay: surface plasmon resonance (Biacore), Hepcidin-25 as analyte, tested side by side with cynomolgus hepcidin 25 in the same assay format; N=3
Hepcidin-25 [11] = molecular target: T3, Hepcidin-25; assay: surface plasmon resonance (Biacore T200, 25 °C), mutein amine-coupled to a CM5 chip, Hepcidin-25 as analyte, 1:1 binding model; N=6
[12] = molecular target: T1, ß-defensin (Sigma Aldrich, D9565); assay: SPR (Biacore T200), mutein immobilized on CM5 chip, analyte in solution
Procedure: (§3) The affinity and binding specificity of a lipocalin mutein was determined in a kinetic assay using surface plasmon resonance. The hepcidin-specific lipocalin mutein having the sequence of SEQ ID NO: 1 and the hNGAL lipocalin having the sequence of SEQ ID NO: 4 were immobilized to a level of 750-1100 resonance units (RU) on a CM5 sensor chip (GE Healthcare, BR-1005-30) using an amine coupling kit (GE Healthcare, BR-1000-50). Residual activated groups were saturated with ethanolamine. The reference channels were treated with EDC/NHS following ethanolamine (blank immobilization). Dilutions of Hepcidin-25 (Peptallova), Fe-enterobactin (Genaxxon Bioscience, S4035.0001), ß-defensin (Sigma Aldrich, D9565), VEGF₈₋₁₀₉ (Pieris, truncated VEGF) and HSA (Sigma Life sciences, A1653) in HBS-EP+ buffer (GE Healthcare, BR-1006-69) were applied to the prepared chip surfaces. The following parameters were used for the binding assay: contact time 60 s, dissociation time 600 s, flow rate 30 μL/min. All measurements were performed on a Biacore T200 instrument (GE Healthcare) at 25° C. […] Prior to the protein measurements three startup cycles were performed for conditioning purposes. Data were evaluated with Biacore T200 Evaluation software (V 1.0). Double referencing was used. The 1:1 Binding model was used to fit the raw data. No binding to the reference channel was detected for all of the targets. […] The bacterial siderophor Fe-enterobactin was selected for this analysis as it constitutes one of the natural ligands of the lipocalin that the lipocalin mutein was derived from.

[13] = molecular target: T2, HSA (Sigma Life sciences, A1653); assay: as above
Procedure: as §3

[14] = molecular target: T4, VEGF8-109 (Pieris, truncated VEGF); assay: as above
Procedure: as §3

Cynomolgus hepcidin 25 [15] = molecular target: T6, Cynomolgus hepcidin 25; assay: surface plasmon resonance (Biacore), cynomolgus hepcidin 25 as analyte, tested side by side with Hepcidin-25 in the same assay format; N=3
[16] = molecular target: T5, Hepcidin-25 containing a C-terminal …; assay: solution competition ECL assay: 25 pM Hepcidin-25-C-bio pre-incubated with the mutein, remaining free Hepcidin-25-C-bio captured on plate-coated antibody 12B9; STDV 23 pM, mean of n=6
Procedure: as §2

T2 sequence (P02768 25-609): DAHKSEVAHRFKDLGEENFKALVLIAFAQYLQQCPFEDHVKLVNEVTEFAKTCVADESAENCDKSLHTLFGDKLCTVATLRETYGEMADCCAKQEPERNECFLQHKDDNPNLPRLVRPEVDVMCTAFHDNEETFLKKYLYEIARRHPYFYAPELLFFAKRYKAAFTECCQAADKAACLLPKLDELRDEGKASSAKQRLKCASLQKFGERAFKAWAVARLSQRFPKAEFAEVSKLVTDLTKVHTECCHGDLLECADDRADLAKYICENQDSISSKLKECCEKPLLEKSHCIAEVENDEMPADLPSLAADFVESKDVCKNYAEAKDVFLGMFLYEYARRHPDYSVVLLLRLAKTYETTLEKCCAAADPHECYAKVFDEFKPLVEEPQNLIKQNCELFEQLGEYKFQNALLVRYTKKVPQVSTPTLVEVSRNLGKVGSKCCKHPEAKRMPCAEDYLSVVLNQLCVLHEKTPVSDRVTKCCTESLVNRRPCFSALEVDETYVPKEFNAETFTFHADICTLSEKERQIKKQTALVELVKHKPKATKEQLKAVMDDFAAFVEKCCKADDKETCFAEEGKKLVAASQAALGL

B1: hNGAL lipocalin having the sequence of SEQ ID NO: 4 (other)
chain: QDSTSDLIPAPPLSKVPLQQNFQDNQFHGKWYVVGLAGNAILREDKDPQKMYATIYELKEDKSYNVTSVLFRKKKCDYWIRTFVPGSQPGEFTLGNIKSYPGLTSYLVRVVSTNYNQHAMVFFKKVSQNREYFKITLYGRTKELTSELKENFIRFSKSLGLPENHIVFPVPIDQCIDG
notes: also called human neutrophil gelatinase-associated lipocalin; lipocalin 2
[1]
  binding result: no binding
[2]
  binding result: no binding
Hepcidin-25 [3]
  binding result: no binding
[4]
  binding result: no binding

B2: hNGAL mutein having the sequence of SEQ ID NO: 1 linked to PEG12 (designed binder)
chain: QDSTSDLIPAPPLSKVPLQQNFQDNQFHGKWYVVGLAGNEVLREDKDPMKMWATIYELKEDKSYNVTIVMPLAEKCEYLFQTFVPGCQPGEFTLGGIKSGPGRTSGLVRVVSTNYNQHAMVFFKVVWQNREVFWVTLYGRTKELTSELKENFIRFSKSLGLPENHIVFPVPIDQCIDG
modifications: linear PEG12 (PEG-maleimide) on the free Cys at position 87
notes: also called PEG12 conjugate
[5]
  IC50: 0.048 nM

B3: hNGAL mutein having the sequence of SEQ ID NO: 1 linked to PEG20 (designed binder)
chain: B2 chain
modifications: linear PEG20 (PEG-maleimide) on the free Cys at position 87
notes: also called PEG20 conjugate
[6]
  IC50: 0.047 nM

B4: hNGAL mutein having the sequence of SEQ ID NO: 1 linked to PEG30 (designed binder)
chain: B2 chain
modifications: linear PEG30 (PEG-maleimide) on the free Cys at position 87
notes: also called PEG30 conjugate; lipocalin-mutein-PEG30 conjugate
[7]
  IC50: 0.058 nM
Cynomolgus hepcidin 25 [8]
  Kd: 0.066 nM

B5: hNGAL mutein having the sequence of SEQ ID NO: 1 linked to PEG40 (designed binder)
chain: B2 chain
modifications: branched PEG40 (PEG-maleimide) on the free Cys at position 87
notes: also called PEG40 conjugate
[9]
  IC50: 0.054 nM
Cynomolgus hepcidin 25 [8]
  Kd: 0.066 nM
  koff: 0.000245 s⁻¹
  kon: 3.74e+06 M⁻¹ s⁻¹

B6: hepcidin-specific lipocalin mutein (hNGAL mutein) having the sequence of SEQ ID NO: 1 (designed binder)
chain: B2 chain
notes: also called the lipocalin mutein; hNGAL mutein having a free cysteine residue at amino acid position 87
Hepcidin-25 [10]
  Kd: 0.1 nM
Hepcidin-25 [11]
  Kd: 0.07 nM
  koff: 0.0002 s⁻¹
  kon: 3.8e+06 M⁻¹ s⁻¹
[12]
  binding result: no binding
[13]
  binding result: no binding
[14]
  binding result: no binding
Cynomolgus hepcidin 25 [15]
  Kd: 0.07 nM

B7: hNGAL mutein having the sequence of SEQ ID NO: 2 (designed binder)
chain: B2 chain with C87S
notes: Non-PEGylated mutein with serine at position 87
[16]
  IC50: 0.056 nM
